Laboratory results from article PMC1950529.
Read-outs that look alike come from different tables or passages of the source.

Legend:
[1] = target: Thermus aquaticus DnaB helicase (Thermus aquaticus); assay: SEC
[2] = target: Thermus aquaticus DnaB helicase (Thermus aquaticus); assay: SEC; remark: listed apart in the source

With “Thermus aquaticus DnaB helicase (enzyme)” the stoichiometry N [1] was 6 and the stoichiometry N [2] was 6.
